# How the values were obtained:
# [1] = target: A/Hong Kong/01/1968 (H3N2) HA (influenza A virus A/Hong Kong/01/1968 …, UniProt Q91MA7); experiment: ELISA
# [2] = target: SC/09 H1N1 HA protein (A/Sichuan/01/2009) (influenza A virus A/Sichuan/01/2009 …); experiment: ELISA
binder,measurement,setting,value
"28-12 (antibody, V domains shown) VH: EVQLVESGGGLVQPGGSLRLSCAASGFTFSTYNMNWVRQAPGKGLEWLSYISTSSNTIYYADSVKGRFTISRDNAKNSLFLQMNSLRDEDTAVYYCARDRGCSSTNCYVVGYYFYGMDVWGQGTTVTVSS VL: DIQMTQSPSSVSASVGDRVTITCRASQGISSYLAWYQLKPGRAPKLLIYGATRLQSGVPSRFSGSGSGTDFTLTISGLQPEDFATYHCQQADSFPLTFGQGTRLEIK",EC50,[1],0.0754 µg/mL
same,EC50,[2],0.0647 µg/mL

# Source: publication PMC9061721 (2022)
